Experimental findings from article PMC4369838 are described below.

In this assay the target is Synthetic Aβ(1–42), prepared as amyloid-beta-derived diffusible ligands (ADDLs) (human). Briefly: SEC; analytical SEC of the ADDL preparation (Superdex 75 5/150, PBS, pH 7.4); oligomer peak area divided by oligomer plus monomer peak area; three separate experiments.

For “Synthetic Aβ(1–42), prepared as amyloid-beta-derived diffusible ligands (ADDLs) (peptide)”, the percent of total Aβ in species larger than monomers stood at 47%.
